Test results published in the DeepSol protein solubility set.

Assay: soluble on expression in E. coli; label from the status in PepcDB or PDB records

In the case of “MNVSFSTPVQNSTASRLALIQQAAARSGALPPAGQYRGSKLSPFDVSQMSGVSISMVERAKINGPEFVEELEWLRQQTTSRCFLDAEMWTNEILAHLPDKWCAPNTLNLYNQVSELVLDNTRSPMASPASNSLYAPGEDQMPTVKRNHTSRFAQSLIKNKEFRRAAFFLEKTMNGNKLDHFLHFRCLFLAYYQEHLENDAEGIERKTSFAEERSPFSLLYQRMEDKKLRENEDVWFEYLMGLLEVELGLKDLAEKSFRNVVIREPRIWPAWEALSRLIADIEDADKFVTSAEVKSLWMGDWFMTLVLQRFHQHSMAIQKAEQLVTRGMTGLPMIITKIAACSNARHDHDQAISNFEDVRKADPYRLGDLHLLSDSLYIRNDQKKLSTLAIEVYKVHKFRWETCCIVANYHAIRRDSEHAIKFFQRALRLNPGLAALWVLIGHEFMEMKNNAAACVSYRRAIEIDPADHRGWYGLGQMYDIMKMPAYALFYYQEAQKCKPHDSRLLVALGDIYSKLNRIEDAEKCFTGAYLFGDVEGNALWSLAKLHERYSDDNKAAQAFEVFLVVYELVTSAEEKIIYAIAFLANHFFKIEDFDKASEYATKCLAFETLCQEGNRLFREIAKIQARESRLPVEEAPGPSNASAAGGQEAMDTEEAPQEGGEEEMSEGEDDFSF”, the “soluble on expression in E. coli” value was “not soluble”.

With “MFIDTLIEKIREKDNPSVVGLDPKIEYVPSFIKEDMYKKYGKNLKAVAEAILLFNKYIIDAVYDIVPAVKPQLAYYEMYGLEGMRVFYETCKYAKEKGLLVIADGKRNDIGSTAQCYSAAYLGKTDIDEGISEAVFDVDALTVNPYLGVDGIKPFIDDCVKYNKGIFVLVKTSNKSSGEIQDILTQEGRSIYEIVAEYVESWGENKKGKYGYSCVGAVVGATYPNLAKILRKILKNSYILVPGYGAQGGTARDVAHCFNYDGLGAIVNASRSIMCAYKSEQWKNVYSEEKFYEASRAEAIRMRDDINSALRDRK” the “soluble on expression in E. coli” value was “not soluble”.

In the case of “HDVIFHIRAKGKNQKLLLSAHPSYSRVHITAQAYENPSEPPMFCMLLRKHIEGGFIEKIEQAGLDRIMIFHIKSRNEIGDETVRKLYVEIMGRHSNIILTDAAENVIIDGLKHLSPSMNSYRTVLPGQDYKLPPAQDKISPLEASEDDILRHLSFQEGRLDKQIVDHFSGVSPLFAKEAVHRAGLANKVTLPKALLALFAEVKEHRFIPNITTVNGKEYFYLLELTHLKGEARRFDSLSELLDRFYFGKAERDRVKQQAQDLERFVVNERKKNANKIKKLEKTLEYSENAKEFQLYGELLTANLYMLKKGD”, the “soluble on expression in E. coli” value was “not soluble”.

For “MVFEGHLVGTGLKVGVVVGRFNEFITSKLLGGALDGLKRHGVEENDIDVAWVPGAFEIPLIAKKMANSGKYDAVITLGTVIRGATTHYDYVCNEVAKGVASLSLQTDIPVIFGVLTTETIEQAIERAGTKAGNKGYESAVAAIEMAHLSKHWA”, the “soluble on expression in E. coli” value was “not soluble”.

In the case of “MGSDKIHHHHHHMDKYLSANSLEGVIDNEFSMPAPRWLNTYPAGPYRFINREFFIIAYETDPDLLQAILPPDMELLEPVVKFEFIRMPDSTGFGDYTESGQVVPVRYKGEEGGFTISMFLDCHAPIAGGREIWGFPKKLAKPKLFVEEDTLIGILKYGSIDIAIATMGYKHRPLDAEKVLESVKKPVFLLKNIPNVDGTPLVNQLTKTYLTDITVKGAWTGPGSLELHPHALAPISNLYIKKIVSVSHFITDLTLPYGKVVADYLA”, the “soluble on expression in E. coli” value was “not soluble”.

In the case of “MGSDKIHHHHHHMYCMEKCVENYFVLNEEIKDKKTFDGNFVENGKSLYEVIRIIDGIPLFLGNHIKRLENSFKIEKLSFPVSLDNIKQNIFKLIEANKCEVGNVKLVFNYFENKCDFYGYFVQHKYPDEYDYINGVKTILYHGERSNPNAKVINLNFRKNVDKKIKEKGVFEAILVDRNGNITEGSKSNIFMVKSNTVYTAPVEDVLPGITREIIVEICKQCGYTVVDEKINYKKIDQFEGLFISGTSPKVLPICQVDDIKFNSQGTEMIRNIRKAYDDYISNYIKNFDSRS”, the “soluble on expression in E. coli” value was “not soluble”.

For “MARTAAALHILVKHKEQADDILAQLKKGAKFHVLAKKYSTCPSGKKGGDLGEFRQGQMVPAFDKACFQGEVLTPQLVKTKFGWHVVKVLYRT”, the “soluble on expression in E. coli” value was “not soluble”.

For “MIEVKHLKTLQALRNCGSLAAAAATLHQTQSALSHQFSDLEQRLGFRLFVRKSQPLRFTPQGEILLQLANQVLPQISQALQACNEPQQTRLRIAIECHSCIQWLTPALENFHKNWPQVEMDFKSGVTFDPQPALQQGELDLVMTSDILPRSGLHYSPMFDYEVRLVLAPDHPLAAKTRITPEDLASETLLIYPVQRSRLDVWRHFLQPAGVSPSLKSVDNTLLLIQMVAARMGIAALPHWVVESFERQGLVVTKTLGEGLWSRLYAAVRDGEQRQPVTEAFIRSARNHACDHLPFVKSAERPTYDAPTVRPGSPARL”, the “soluble on expression in E. coli” value was “soluble”.

In the case of “MKISIENIGKIKSTSILLDGFTVIAGENDSGKSTVGKIVYSIIQAFSIYPQFRKEKIRRKTSHSLRFFITELRRNFDLTKHDSLRQMMSFSFVNHIMADPDDALYEIRGVLDKLEESYPEKLETLIKLKSRLYGIQREIDSLSESDDIFESITDLMQSEFGGEIDRKQDSRPPSFEINDGETTVISAKFSDGIITDGIYSGGLGLGLGDATYIDGASILQYAHLINLNDSDPRLPFHITDLARKLISPTLVRGGSSNLADIYKGRLVFDETQNSFYFDKGGYRVCLNNIASGIKNIGVLDLLVKKGVICDGSLLVLDEPEINLHPKWQTQLAKIICELHQAGVYILLTTHSPYMIEALHYYANVSGIKSNFYLACKSIANPDDVDFIDLSMNVGAIIEDLAQPLWDIVEDNNEFLEHHHHHH”, the “soluble on expression in E. coli” value was “soluble”.

With “MVYFGRAKTLSHRHPNTGSGGCVFSLKTVLLYQQDSYLREFEARVEEASGGRVVLDRTAFHPGPHGGLDTDTGYIFYGDKRYRVVRAAVEGDVVAHYLDSDTATLEPGAVVKGVIDWERRYRMMRLHTFSHILAAVLYEKHDVLVTGGHITPDYGKDDFSIEGGGWREVIEEAFREANEIASRCIEVKVYWLPREEALKIPGIVKLANKLPPEVETLRIVEIPGVDVQADGGPHVRNTCEIGRVVITKLESKGKRRKRVYYTLEEALEPTPEAP” the “soluble on expression in E. coli” value was “not soluble”.

In the case of “MKSAIPSLMVQGTTSDAGKSVLVAGLCRVLARKGINVAPFKPQNMALNSAVTKDGGEIGRAQAVQAQACNIEPTVHMNPVLIKPNSDTGAQIILQGKALSNMDAASFHDYKKVAMNTVLDSFSKLTKEFDSIMIEGAGSPAEINLREGDIANMGFAEAADVPVIIVADIDRGGVFAHLYGTLALLSESEQTRVKGFVINRFRGDIRLLQSGLDWLEEKTGKPVLGVLPYLHGLNLEAEDAITAQQELNSEVKLNVVVPVLTRISNHTDFDVLRLNPDINLSYVGKGEKI”, the “soluble on expression in E. coli” value was “not soluble”.

In the case of “MTCDDWNSFIQVNIYGKTIEGLQQQGVVLESLLNNIGCSKLWIVEGSMYTSLTNESSTYSESTIEPVVPLSTTLATNKLPRFSTPAVGHSKYNSAKNFTLNLAEKLSEILSDDDKTDKCLENSYQSETSREDVIQDLLEEMVQTVADVDQAPILLSTTLANIGVPRFSTPIKPQNGLDRKFTMNMTERISEIDSNYQGYELFEDSSNDCTTLIPNCQEVESSFYRALPEAASSIVPYQEGKRRSSRRLSTLSSLKETVKIEPTVSKLTKRRRLTSIESSNETMVPHSEPIPLDKDGFSYEQPINEYGDNESFLSAKSLCTEPRSSISEDVKPVLKATDSERTVSIGNHIVDHHPVIELSTEHNTMGEFQYDFDDEDTVLIGNYEEVGTEIDEAEQQNEENSEDDEEDESPIPSTKKVSFAVPVVQRLNKRNEQMNKNHIIKCNFEGCKQILSWKLRYGKQRLLDHAMTHENEKCLVCRTCEYSCSTHPQMKYHYQKMHPEVRCDGFNIQKVFNIEFDEVAIFDLFQKCFGAHSSIIGNIGKPRRYKKCKNSLKNTPEVDNENVDKDSPGPSHDLF”, the “soluble on expression in E. coli” value was “not soluble”.

In the case of “AALAEIVAQLNIYQSQVELIQQQMEAVRATISELEILEKTLSDIQGKDGSETLVPVGAGSFIKAELKDTSEVIMSVGAGVAIKKNFEDAMESIKSQKNELESTLQKMGENLRAITDIMMKLSPQAEELLAAVA”, the “soluble on expression in E. coli” value was “soluble”.

With “QPKTFTVRIVTMDAEMEFNCEMKWKGKDLFDLVCRTLGLRETWFFGLQYTIKDTVAWLKMDKKVLDHDVSKEEPVTFHFLAKFYPENAEEELVQEITQHLFFLQVKKQILDEKVYCPPEASVLLASYAVQAKYGDYDPSVHKRGFLAQEELLPKRVINLYQMTPEMWEERITAWYAEHRGRARDEAEMEYLKIAQDLEMYGVNYFTIRNKKGTELLLGVDALGLHIYDPENRLTPKISFPWNEIRNISYSDKEFTIKPLDKKIDVFKFNSSKLRVNKLILQLCIGNHDLFMRRRKADSLEVQQMKAQAREEKARKQMERQRLA” the “soluble on expression in E. coli” value was “soluble”.

For “MGSDKIHHHHHHMANEATQELFQVLDNTAIILQNELEISYLEAVYETGENLFQKEVLQKEELSSEKQLKLQASYESIELENFSNEEIRKGLQLALLKGMKHGIQVNHQMTPDSIGFIVAYLLEKVIQKKKNVSILDPACGTANLLTTVINQLELKGDVDVHASGVDVDDLLISLALVGADLQRQKMTLLHQDGLANLLVDPVDVVISDLPVGYYPDDENAKTFELCREEGHSFAHFLFIEQGMRYTKPGGYLFFLVPDAMFGTSDFAKVDKFIKKNGHIEGIIKLPETLFKSEQARKSILILEKADVDVKPPKEVLLANLSSLTDPSVTAPILAEIENWFKSKQ”, the “soluble on expression in E. coli” value was “soluble”.

In the case of “MLGMHFTPVEVFHRYIMPQIRDHLNDYLWVDMFCGEGNLILPMLDYIDRDRRGEFFRDHIMCFDIDESAVERSIENAMKYGIPQEMARRNIRTRDTLMDYPVLSGRYPVFHITNPPYLYLGYIRKRKDARRHQEYFEGQNDGYQDLYQIAMMNDLRHGIGNMIYIIPSNFFFSDAGTRKIREDFLKIYRIGSCYIFERRIFPSTGTNVMILSFQRSQSPVESIEFDAIRINKHEEKKRYVLRSENNFKPDNEYQDYIRAHFRPDHPVVKFYLTYDEIGKNPGNNRVVLVNSKEYRHGEYERETFSVNDDLYARIKSNPLYVRTVDKGTREGRSGIYSIIRDFGADGIFVKGPTYRTSPIQIFIDPPLSANEALKLMEIFNRTLNDLRERSDSDFMTTYKYSDSAAYVRKYLGLKQVRGIMSTISLEDLKDGASSTDL”, the “soluble on expression in E. coli” value was “not soluble”.

For “MSLNKKIILLADDDRDDIEMFCEALEMVNENVICECAENGDQAWRMLNDNNEKPQLIFLDINMPIMNGWECLKLIKKDENYQDIPVIMISTSSHKNDMETASKLGALGYFVKPNDFNDLKSMLKIITSNEGTDEGHHHHHH”, the “soluble on expression in E. coli” value was “soluble”.

In the case of SKPSKPFNVDDVLKFTFTGEKHHHHHH, the “soluble on expression in E. coli” value was “soluble”.

In the case of “MSLATLLHIDSSVFPSAASASRAVAETFRTAWQEQHPDGTVIYRDLSANPVPHITADAHTAGFADPATHTPGQAAAFAEREKLIAELEQADAVLIGAPMYNYAIPSTLKAWLDNVILMGRTAANENSKVTGTPVTVIASRGGSYAPGTPREPYEYVQNYLKAVLSDALGLELEFIVPELTMAAHNPAMSELVPLAEASRAKAHEDAAAKAKELADRFAAEGHHHHHH”, the “soluble on expression in E. coli” value was “soluble”.

In the case of “MSLDTFGLIQLAELIYEYCGIDFFKNLSSLESKISERLKELGLSCWEYGGYLRVEPKEWDTLIDLITVNETYFFREENLLEEFQKVILPKYKDRTPNNPLRIWSSACSSGEEPYTLAILSEETGLFETGAVEIIASDIDKKVLEKARRGLYNKKSFSFRTMPKEILDKYFISFGDDYKVKDSIRAMVDFRRVNLLDENKLEKVGEVDIVFCRNVLIYFDTKAINKVINSLYKVLRAGGYLFLGHAETITGMNTGFETIYTPSAFYYRKGERHEGHHHHHH”, the “soluble on expression in E. coli” value was “soluble”.

For “MSKLTAAYNKTRECVVTRSKIMMGYPEARYPTIPKILKKTADFQKLEGSKDRIAFTLSQEPIADKKCTEMIKNVLLEQFQDTDIPANYIAVSMALPNFKIGQNCHDFQPLDWYKNIKGYFTYKKITEQVQAAYFNDEAGNQFLAGVCYYATPAGKWVAKLQTEQTLLRFEFQKAEPFPLNSKSRFDTKAFKKFARYGRYCETEGCRVLVWVGKADGQIVHLNYHPVYCMQWTKGCAECAKDHFEYMWIAPEEPVVQKSKEEDYILKAPEDKDLSDFDQLSDVLNVDAISLH”, the “soluble on expression in E. coli” value was “not soluble”.
